The target in series [1] is T1, CD39 mutant 19 (R138A, M139A, E142K) (human, UniProt P49961 1-510).
T1 construct: Transfected in HEK293T cells
T1 chain: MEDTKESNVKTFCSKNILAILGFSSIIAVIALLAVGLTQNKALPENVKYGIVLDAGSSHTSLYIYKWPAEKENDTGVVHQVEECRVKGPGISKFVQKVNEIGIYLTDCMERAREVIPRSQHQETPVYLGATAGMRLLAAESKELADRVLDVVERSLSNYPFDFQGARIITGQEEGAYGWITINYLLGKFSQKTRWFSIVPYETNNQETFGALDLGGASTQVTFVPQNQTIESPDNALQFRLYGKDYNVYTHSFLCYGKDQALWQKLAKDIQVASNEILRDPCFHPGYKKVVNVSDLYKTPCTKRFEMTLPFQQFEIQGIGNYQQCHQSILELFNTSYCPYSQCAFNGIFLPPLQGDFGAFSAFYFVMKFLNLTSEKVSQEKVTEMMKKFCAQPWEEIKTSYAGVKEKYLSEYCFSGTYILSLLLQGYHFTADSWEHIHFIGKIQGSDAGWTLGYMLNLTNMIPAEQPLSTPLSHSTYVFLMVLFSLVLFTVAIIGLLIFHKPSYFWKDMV
Nature of the series: flow cytometry, HEK293T cells transfected with mutant 19. (In general: A flow cytometer gives signals particle by particle.)

For series [2], the target named is T2, CD39 mutant 5 (Q96A, N99A, E143A, R147E) (human, UniProt P49961 1-510).
T2 construct: Transfected in HEK293T cells
T2 chain: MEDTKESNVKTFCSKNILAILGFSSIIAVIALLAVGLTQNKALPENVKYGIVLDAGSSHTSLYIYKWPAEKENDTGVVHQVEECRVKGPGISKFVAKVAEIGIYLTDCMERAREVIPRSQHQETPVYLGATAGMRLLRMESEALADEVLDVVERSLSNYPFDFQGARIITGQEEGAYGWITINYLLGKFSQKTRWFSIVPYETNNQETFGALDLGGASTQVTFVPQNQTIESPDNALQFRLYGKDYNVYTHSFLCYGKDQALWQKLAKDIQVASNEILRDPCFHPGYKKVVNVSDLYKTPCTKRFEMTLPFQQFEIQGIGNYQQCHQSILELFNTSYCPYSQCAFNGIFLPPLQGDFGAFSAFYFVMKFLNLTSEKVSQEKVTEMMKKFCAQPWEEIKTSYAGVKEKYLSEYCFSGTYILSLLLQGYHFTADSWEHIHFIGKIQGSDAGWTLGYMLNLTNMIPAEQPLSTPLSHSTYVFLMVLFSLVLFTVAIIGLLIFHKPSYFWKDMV
Put plainly: flow cytometry on transfected HEK293T cells.

Series [3] addresses T3, Recombinant human CD39-L2 (NTPDase6, ENTPD6) (human, UniProt O75354 61-484, limits assumed).
T3 construct: Coated in ELISA
T3 sequence: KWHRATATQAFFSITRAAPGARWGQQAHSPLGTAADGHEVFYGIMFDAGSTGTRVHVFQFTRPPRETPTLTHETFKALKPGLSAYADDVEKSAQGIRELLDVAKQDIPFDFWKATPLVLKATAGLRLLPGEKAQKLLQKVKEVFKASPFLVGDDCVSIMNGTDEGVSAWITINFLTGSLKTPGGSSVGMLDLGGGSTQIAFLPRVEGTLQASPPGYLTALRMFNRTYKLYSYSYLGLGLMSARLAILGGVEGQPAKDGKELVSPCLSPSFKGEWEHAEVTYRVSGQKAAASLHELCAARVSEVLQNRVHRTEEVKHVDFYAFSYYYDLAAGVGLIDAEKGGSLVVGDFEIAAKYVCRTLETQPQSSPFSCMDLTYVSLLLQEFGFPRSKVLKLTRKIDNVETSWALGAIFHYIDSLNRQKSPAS
Put plainly: ELISA on coated RechuCD39-L2, OD 450 nm [top panel CHS2-I-391]. How it is done:
Wells were washed in TBS Tween 20, and further saturated 2H at RT in TBS Blocking buffer. Dose range concentration of primary antibody was incubated in TBS blocking buffer for 2h at RT. Wells were washed in TBS Tween 20. […] Optical density was measured on Enspire at OD=450.
On the technique in general: In an ELISA, binding on a coated surface is turned into a signal by an enzyme label.

The nature of series [4]: Stability in reference formulation, thermal shift stability assay (aggregation temperature). Format: physicochemical. The note with it: in words. The method, then:
All antibodies were tested for stability in the following reference formulation at a concentration of approximatively 7 mg/mL: pH 6.0; histidine buffer (10 mM); sucrose (200 mM); NaCl (50 mM); Polysorbate 80 (PS80) (0.2 g/L). […] So for this study the concentration is set at 0.2 g/L.
The stability of the formulations was monitored in two storage conditions (at +5° C.±3° C. and at +40±3° C. For each study, 3 times point were performed: TO, T15D (15 days) and T1M (1 month). A freeze thaw (F/T) and a thermal shift stability assay (TSSA) were conducted for the format comparison. To perform F/T cycles, the samples were frozen at least 2 hours at −20° C. and thawed at least 1 hour at room temperature, the F/T cycle is repeated three times and samples are tested 24h after the last Freeze/Thaw cycle. At each time point, the following tests were performed: • Particulate Matter (MFI) • Visual Inspection (Appearance) • Impurities (SE-HPLC) • Turbidity (400 nm) • Protein Concentration (280 nm) (performed with Nanodrop, Thermo Fisher Scientific Inc.)
Aggregation temperature is correlated with the intrinsic stability. The higher the TAgg, the higher the stability of the protein. […]

B1: Antibody I-391, Fc silent recombinant chimeric human IgG1 with heavy chain N297Q mutation (antibody, V domains shown)
VH: QIQLVQSGPELKKPGETVKISCKASGYTFRNYGMNWVKQAPGKGLKWMGWINTYTGEPTYADDFKGRFAFSLATSASTAYLQISNLKNEDTATYFCARKAYYGSNYYFDYWGQGTTLTVSS
VL: DIVMTQSHKFMSTSVGDRVSITCKASQDVSTAVAWYQQKPGQSPKLLIYSASYRYTGVPDRFTGSGSGTDFTFTISTVQAEDLAVYYCQQHYTTPPYTFGGGTKLEIKR
Consider B1, for which the binding result in series [1] is “binds”; in series [2], “no binding (tested: dose range 10 to 0.0006 µg/ml)”; in series [3] it was “no binding (tested: 50 ug/ml)”.

B2: I-392: anti-CD39 antibody, VH SEQ ID NO: 8 and VL SEQ ID NO: 9, chimeric human IgG1 with N297Q mutation (antibody, V domains shown)
VH: QIQLVQSGPEVKKPRETVKISCKASGYTFTHYGMNWVKQAPGKGLKWMGWINTYTGEPTYADDFKGRFAFSLEASASTAYLQINNLKNEDTATYFCARRRYEGNYVFYYFDYWGQGTTLTVSS
VL: DIQMTQSPASLSASVGETVTITCRASENIYSYFSWYQQKQGKSPQLLVYTAKTLAEGVPSRFSGSGSGTQFSLKINSLQPEDFGSYYCQHHYVTPYTFGGGTKLEIK
Consider B2, for which, in series [4], the “stability (aggregation)” value is given as “relatively low inherent stability”.

For the origin of these results see patent US20190153113A1, “CD39 VASCULAR ISOFORM TARGETING AGENTS” (INNATE PHARMA, priority 2015, published 2019).
